# Columns and labels:
# Conditions in all cases: Sus scrofa
# NCc1c[nH]c(C(=O)O)c1 [1] = assay: (§1) Activity of pig GABA aminotransferase using alpha-ketoglutarate as substrate after 16 hrs by Hanes-Woolf plot analysis
# NCc1ccc(C(=O)O)[nH]1 [2] = assay: as §1
# NCc1ccc(C(=O)O)o1 [3] = assay: as §1
# NCc1ccc(C(=O)O)s1 [4] = assay: as §1
# NCc1coc(C(=O)O)c1 [5] = assay: as §1
# NCc1cocc1C(=O)O [6] = assay: as §1
# NCc1csc(C(=O)O)c1 [7] = assay: as §1
# NCc1cscc1C(=O)O = assay: as §1
# NCc1c[nH]c(C(=O)O)c1 [8] = assay: (§2) Ratio of Kcat to Km for pig GABA aminotransferase
# NCc1ccc(C(=O)O)[nH]1 [9] = assay: as §2
# NCc1ccc(C(=O)O)o1 [10] = assay: as §2
# NCc1ccc(C(=O)O)s1 [11] = assay: as §2
# NCc1coc(C(=O)O)c1 [12] = assay: as §2
# NCc1cocc1C(=O)O [13] = assay: as §2
# NCc1csc(C(=O)O)c1 [14] = assay: as §2
# 4-aminobutyrate aminotransferase, mitochondrial (Sus scrofa), P80147, sequence (P80147 whole entry): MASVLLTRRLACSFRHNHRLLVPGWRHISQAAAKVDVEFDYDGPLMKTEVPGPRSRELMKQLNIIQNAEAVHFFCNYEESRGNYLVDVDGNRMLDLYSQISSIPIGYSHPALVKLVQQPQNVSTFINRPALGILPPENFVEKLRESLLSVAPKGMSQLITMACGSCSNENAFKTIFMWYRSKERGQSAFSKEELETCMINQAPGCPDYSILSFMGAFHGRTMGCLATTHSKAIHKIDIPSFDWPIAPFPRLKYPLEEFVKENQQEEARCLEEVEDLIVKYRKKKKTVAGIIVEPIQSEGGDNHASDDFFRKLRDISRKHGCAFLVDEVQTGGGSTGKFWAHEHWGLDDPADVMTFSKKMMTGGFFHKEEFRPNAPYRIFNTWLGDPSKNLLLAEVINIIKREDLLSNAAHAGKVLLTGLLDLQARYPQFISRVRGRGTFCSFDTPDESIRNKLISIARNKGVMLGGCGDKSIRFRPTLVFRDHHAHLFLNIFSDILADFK
substance,measurement,setting,value
"4-aminobutyrate aminotransferase, mitochondrial (Sus scrofa), P80147",Km,NCc1c[nH]c(C(=O)O)c1 [1],1400 µM
same,kcat,NCc1c[nH]c(C(=O)O)c1 [1],3.4 ×10⁻³ /min
same,Km,NCc1ccc(C(=O)O)[nH]1 [2],9500 µM
same,kcat,NCc1ccc(C(=O)O)[nH]1 [2],1.5 ×10⁻³ /min
same,Km,NCc1ccc(C(=O)O)o1 [3],2100 µM
same,kcat,NCc1ccc(C(=O)O)o1 [3],3.4 ×10⁻² /min
same,Km,NCc1ccc(C(=O)O)s1 [4],6300 µM
same,kcat,NCc1ccc(C(=O)O)s1 [4],1 ×10⁻² /min
same,Km,NCc1coc(C(=O)O)c1 [5],310 µM
same,kcat,NCc1coc(C(=O)O)c1 [5],2.3 ×10⁻³ /min
same,Km,NCc1cocc1C(=O)O [6],2800 µM
same,kcat,NCc1cocc1C(=O)O [6],8.3 ×10⁻⁴ /min
same,Km,NCc1csc(C(=O)O)c1 [7],1700 µM
same,kcat,NCc1csc(C(=O)O)c1 [7],5.2 ×10⁻³ /min
same,Km,NCc1cscc1C(=O)O,> 10000 µM
same,kcat/Km,NCc1c[nH]c(C(=O)O)c1 [8],0.04 M⁻¹ s⁻¹
same,kcat/Km,NCc1ccc(C(=O)O)[nH]1 [9],0.00267 M⁻¹ s⁻¹
same,kcat/Km,NCc1ccc(C(=O)O)o1 [10],0.267 M⁻¹ s⁻¹
same,kcat/Km,NCc1ccc(C(=O)O)s1 [11],0.0267 M⁻¹ s⁻¹
same,kcat/Km,NCc1coc(C(=O)O)c1 [12],0.123 M⁻¹ s⁻¹
same,kcat/Km,NCc1cocc1C(=O)O [13],0.005 M⁻¹ s⁻¹
same,kcat/Km,NCc1csc(C(=O)O)c1 [14],0.00517 M⁻¹ s⁻¹
